On the set-up of data set [1]: species or system SD rats (Sprague-Dawley Rats). The following applies: rat, in vivo. As for the experimental part: To SD rats (Sprague-Dawley Rats) weighing 140 to 200 grams and previously Ravonal anesthetized, technetium-99m-peptide-1 obtained in Example 6, technetium-99m-peptide-2, 3 and 4 obtained in Example 7, technetium-99m-peptide-5, 6, 7, 8, 9, 10, 11, 12, 13 and KYCAREPPTRTNAYWGQG (hereinafter referred to as "peptide-14") prepared according to the method of Example 6 were each administered to the tail vein in an amount of 35 MBq to 45 MBq. The animals were sacrificed 5, 30, 60 and 180 minutes later to determine distribution ratio of radioactivity in various organs using a single channel counter.

Data set [2] in a line: In vitro stability of technetium-99m labeled peptide in human plasma (HPLC). Type of data set: in vitro ADME. As for the experimental part:
Technetium-99m-peptide-8 obtained in Example 8 was mixed with 10-fold equivalent of human plasma (ROCKLAND Inc.: STERILE PLASMA containing EDTA) and the mixture was incubated at 37° C. A mixture of technetium-99m-peptide-1 obtained in Example 6 was also prepared by the same method.
The mixture was filtered through a 0.2 μm membrane filter 5 minutes and 30 minutes after the mixing, and was subjected to HPLC analysis. In vitro stability was evaluated by comparing the pattern of HPLC with that of peptide-1 before the mixing procedure. The HPLC profiles of technetium-99m-peptide-1 and of each of the above technetium-99m-labeled peptides mixed with plasma at 4° C. at the 5 and 30 minute points and at 37° C. at the 5 and 30 minute points are shown in FIGS. 7, 8, 9, 10, 11, 12, 13, 14 and 15.

Data set [3] is described as follows: Time course of technetium-99m labeling yield in vitro (HPLC). Type of data set: physicochemical. As for the experimental part: To 40.3 μmol/300 μl of glucoheptanate was added 130 nmol/50 μl of stannous chloride and 1049 MBq of sodium pertechnetate, and the entire volume was adjusted to 1.3 ml. After stirring, the mixture was left to stand still for 30 minutes at room temperature and then the labeling purity of glucoheptanate was confirmed to be 95% or more by cellulose acetate membrane electrophoresis. 242 MBq/300 μl of the mixture was added to 0.46 μmol/300 μl of peptide-1 obtained in Example 1 and the reaction was completed in a hot water bath at 100° C. in 20 minutes to yield the target technetium-99m-peptide-1. After cooling at room temperature, the peptide was confirmed to have a labeling purity of 98.3% according to HPLC method.
After technetium-99m-peptide-1 obtained in Example 6 and technetium-99m-peptides-2 to 4 obtained by the same method as in Example 6 were left to stand still for 1, 3 and 6 hours, the time course changes of technetium-99m labeling yield of the peptides were studied using liquid chromatography (HPLC method) under the following conditions:
Column: Millipore puresil 5 μm C18 (4.6×150 mm),
Eluent A: 0.1% TFA/purified water,
Eluent B: 0.1% TFA/acetonitrile,
Concentration gradient: 0 min. (10% B)→5 mins. (10% B)→35 mins. (50% B)→45 mins. (75% B).

Data set [4] deals with T1, epitope VTSAPDTRPAPGST of mucin core protein conjugated to bovine serum albumin (BSA) (Homo sapiens, UniProt P15941).
T1 construct: made in house; host or cells: chemical peptide synthesis (no expression host)
The format is binding. How it is done:
The epitope VTSAPDTRPAPGST of mucin core protein, to which the conventional peptide YCAREPPTRTNAYWG is known to bind, was synthesized and further conjugated to bovine serum albumin (BSA). The conjugated peptide was used as an artificial antigen to measure antigen affinity of peptide-14 by radioimmunoassay (RIA). The assay will be described below in detail.
Each 200 μl of 10 μg/ml solution of the artificial antigen in 50 mmol sodium carbonate buffer of a pH of 9.5 was added to each of 2 ml tubes containing polystyrene beads of 6.35 mm in diameter. The tubes were stood still overnight at 4° C. Then, the inside of the tubes was washed three times by a washing agent of 0.05%(v/v) Tween 20 PBS (phosphate buffer saline, pH 7.5). In order to block the portions to which the artificial antigen is not bound of the surface of the polystyrene beads, 200 μl of 1% BSA-PBS was each added to each of the tubes. The tubes were stood still for 3 hours at room temperature. Then, the inside of the tubes was washed three times.
Peptide-14 was diluted to 500, 100, 50, 10, 5, 1, 0.5, 0.1 and 0.05 μg/ml with PBS containing 1% PRIONEX™ (an albumin substitute of Pentapharm, Ltd.). […] Each of the diluted peptide-containing solutions was added to each of the […] tubes, followed by adding thereto 100 μl of the previously-prepared antibody solution. The tubes were stood still for 3 hours. Then, the inside of the tubes was washed three times with the washing agent.
A sheep antimouse antibody labelled with iodine-125 (3.7 MBq/ml, made by Amersham Co.) was diluted 100-fold with 1% BSA-PBS. To each of the tubes, 200 μl of the diluted antimouse antibody was added. Then, the tubes were stood still for 2 hours at 37° C. Then, the inside of the tubes was washed three times with the washing agent, and radioactivity was measured by use of an auto well gammma ray counter.

Where two headings read alike, the source gives them in different places. No end group written: not given here.

In the case of KYCAD-REPPTD-RTFAYD-WGQG [peptide-10], the “radioactivity in liver and small intestines compared with peptides having corresponding L-Arg” value in data set [1] is “reduced percentages of radioactivity in liver and small intestines”.

With KYCAD-REPPTD-RTFAYWGQG [peptide-9], the “radioactivity in liver and small intestines compared with peptides having corresponding L-Arg” value in data set [1] is “reduced percentages of radioactivity in liver and small intestines”.

Turning to KYCAD-REPPTRTFAYWGQG [peptide-7], the “radioactivity in liver and small intestines compared with peptides having corresponding L-Arg” value in data set [1] is “reduced percentages of radioactivity in liver and small intestines”.

With KYCAREPPTRTFAYWGQG [peptide-1], the “% of unidentified radioactive substance in plasma” value in data set [2] (5 mins. later/4° C.) amounted to 5.3%; in data set [2] (5 mins. later/37° C.), 12.4%; in data set [2] (30 mins. later/4° C.), 40.1%; in data set [2] (30 mins. later/37° C.) it was 59.4%. The technetium-99m labeling yield in data set [3] (1 hr. standing after labeling) was at least 98%; in data set [3] (1 hr. standing after labeling, listed as Peptide-1), 98.3%; in data set [3] (3 hr. standing after labeling) it was 97.2%; in data set [3] (6 hr. standing after labeling), at least 96%; in data set [3] (6 hr. standing after labeling, listed as Peptide-1), 96.6%.

As for “KYCAREPPTRTNAYWGQG [peptide-14, KYCAREPPTRTNAYWGQG]”, the binding percentage came to 29.517% in data set [4] (5.0e-8 g/ml); 27.890% in data set [4] (1.0e-7 g/ml); 42.941% in data set [4] (5.0e-7 g/ml); 38.129% in data set [4] (1.0e-6 g/ml); 50.293% in data set [4] (5.0e-6 g/ml); 60.056% in data set [4] (1.0e-5 g/ml). Further, the binding percentage in data set [4] (5.0e-5 g/ml) came out at 60.869%; in data set [4] (1.0e-4 g/ml), 58.585%; in data set [4] (5.0e-4 g/ml) it was 63.669%.

Consider “YCAREPPTRTFAYWG [peptide-3, peptide without N-terminal Lys, used for comparison]”, for which the technetium-99m labeling yield in data set [3] (1 hr. standing after labeling) is 96.3%; in data set [3] (3 hr. standing after labeling), “below 95%”; in data set [3] (3 hr. standing after labeling, listed as Peptide-3), 88.9%; in data set [3] (6 hr. standing after labeling), 84.4%.

Regarding YCAREPPTRTFAYWGQG [peptide-4], the technetium-99m labeling yield is 81.5% in data set [3] (1 hr. standing after labeling); “below 95%” in data set [3] (3 hr. standing after labeling); 81.2% in data set [3] (3 hr. standing after labeling, listed as Peptide-4); 79.9% in data set [3] (6 hr. standing after labeling).

“YCAREPPTRTNAYWG [peptide-2, conventional peptide without N-terminal Lys, used for comparison]”: the technetium-99m labeling yield in data set [3] (1 hr. standing after labeling) was 85.5%; in data set [3] (3 hr. standing after labeling), “below 95%”; in data set [3] (3 hr. standing after labeling, listed as Peptide-2), 71.8%; in data set [3] (6 hr. standing after labeling) it was 78.5%.

These data come from patent US5827498A, “Tumor affinity peptide, and radioactive diagnostic agent and radioactive therapeutic agent containing the peptide” (Nihon Medi-Physics Co., Ltd., priority 1994, dated 1998).
